Data: the supplement of paper PMC10567573
± gives the standard deviation.

Experiment: protein stability index of a GFP-peptide fusion (GPS, HEK-293T) (PSI 1-6); higher = more stable
[1] = treatment: DMSO, c terminus: a fixed tail appended
[2] = treatment: MLN4924 1 uM, 8 h, c terminus: a fixed tail appended
[3] = treatment: DMSO, c terminus: native
[4] = treatment: MLN4924 1 uM, 8 h, c terminus: native
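Note: 24-mer peptide tiles fused after GFP, lentivirally expressed, FACS-sorted into six equal bins by GFP/DsRed ratio, decoded by Illumina sequencing, PSI is the read-weighted mean bin number.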

Row | Sequence | protein stability index [1] | protein stability index [2] | protein stability index [3] | protein stability index [4]
1 | HDTKDQSPSRAPGLRQRASNKVQD [HMOX1] | 5.58 ± 0.24 | 5.29 ± 0.14 |  | 
2 | DFGLAKEYIDPETKKHIPYREHKS [CSNK1G1] | 4.26 ± 0.34 | 4.34 ± 0.086 |  | 
3 | KKLRLNGGRNPYEGRVEVLVERNG [LOXL2] | 3.05 ± 0.13 | 4.01 ± 0.18 |  | 
4 | VSLGQKLVAAYVLGLLTMVFLRT [MOSPD3] |  |  | 2.56 ± 0.71 | 2.07 ± 0.42
5 | AVEWARNIPFFPDLQITDQVALLR [NR2F2] | 2.64 ± 0.2 | 2.79 ± 0.22 |  | 
6 | LELGHWLYQTELVENECYQVFLDR [TOR1AIP2] | 2.38 ± 0.038 | 2.26 ± 0.32 |  | 
7 | MKALLGSYAHSVEDTHVQIGQVHE [FCHO1] | 3.62 ± 0.091 | 3.6 ± 0.25 |  | 
8 | APDSGRSAPYSAAFLELPHGSGGS [TBX6] | 4.3 ± 0.17 | 4.46 ± 0.066 |  | 
9 | ARRLTRFTGVITQGRNSLWLSDWV [CPXM2] | 2.43 ± 0.24 | 2.38 ± 0.26 |  | 
10 | IGPFGGFFASGFKRAFKIKDFANT [CDS2] | 2.32 ± 0.27 | 2.15 ± 0.4 |  | 
11 | LLETDAGPAASEGAEQPPDLHCVL [GADD45A] | 4.82 ± 0.29 | 4.78 ± 0.18 |  | 
12 | AQQLLCDEQAPQRQRLLADLLHNV [DFFB] | 3.98 ± 0.16 | 3.92 ± 0.24 |  | 
13 | TPASQSPKKPPAKDPLADLNIKDF [SNAP91] | 5.06 ± 0.092 | 4.87 ± 0.25 |  | 
14 | LRAPTISDLLNDQDLLDVIRIKLD [EDARADD] | 2.11 ± 0.61 | 2.06 ± 0.29 |  | 
15 | YMVRRYFNKPSRVPAPEAFRDPIW [MYORG] | 2.27 ± 0.25 | 2.12 ± 0.39 |  | 
16 | INLEGKTFYSKKDRPLCKSHAFSH [PDLIM7] | 2.55 ± 0.077 | 2.71 ± 0.33 |  | 
17 | PGLGQESKAPGSCDPGTDPCPEDA [TLE6] | 5.65 ± 0.27 | 5.55 ± 0.22 |  | 
18 | QALRENTYPFLAMIMLKDRRMTVV [FAF2] | 2.23 ± 0.31 | 1.96 ± 0.21 |  | 
19 | RERMELLEEAKKMEMAKFRYILPV [RIPK4] | 2.48 ± 0.22 | 2.84 ± 0.4 |  | 
20 | DSDSCQKCDQPFFWNFKQMWDSKK [WDFY2] | 3.64 ± 0.16 | 3.71 ± 0.081 |  | 
21 | YAIAGYDGNSLLSSIECYDPIIDS [KLHL12] | 2.83 ± 0.48 | 3.01 ± 0.36 |  | 
22 | EETGSRFHNCLIQLYCEKVQGLMK [VPS39] | 2.48 ± 0.45 | 2.45 ± 0.5 |  | 
23 | EDDDCDDDDDDDAQILPSRVQGGC [DRICH1] | 5.47 ± 0.22 | 5.43 ± 0.11 |  | 

Row | Sequence | protein stability index [1] | protein stability index [2] | protein stability index [3] | protein stability index [4]
24 | TIAPTLIADLFVADQRSRMLSIFY [SPNS1] | 2.87 ± 0.66 | 2.66 ± 0.6 |  | 
25 | VVAEAQTRVSQLGLQVEGLRRRLE [LRRC45] | 3.71 ± 0.4 | 3.82 ± 0.51 |  | 
26 | SEMECQNQEYKMLLDIKTRLEQEI [KRT13] | 3.72 ± 0.26 | 3.82 ± 0.32 |  | 
27 | CNVKYKRWALLSCRGKKPSRIYGQ [KLHDC10] | 2.21 ± 0.42 | 2.22 ± 0.37 |  | 
28 | HLLGIPHSVLQIRYSGKILKNNET [IQUB] | 2.77 ± 0.41 | 2.32 ± 0.38 |  | 
29 | GAVAPMDFTTAAEDQPINLCDKLP [NOL4L] | 4.7 ± 0.1 | 4.77 ± 0.34 |  | 
30 | NSGHTIFNDPFFIVETVCIVWFSF [KCNA4] | 3.49 ± 0.58 | 3.51 ± 0.31 |  | 
31 | HHLDEDEERERIERVRRIHIKRPD [KCTD10] | 5.09 ± 0.34 | 5.19 ± 0.076 |  | 
32 | ELHEECEGNHPSARKLTAQRRAST [NET1] | 4.92 ± 0.21 | 5.09 ± 0.15 |  | 
33 | NTGKTYFFVANKYWRYDEYKRSMD [MMP1] | 1.98 ± 0.17 | 2.2 ± 0.19 |  | 
34 | NDTYRTDLCLLYPPFMIALACLHV [CCNC] | 3.07 ± 0.38 | 2.97 ± 0.23 |  | 
35 | SRGELIPISPSTEVGGSGIGTPPS [MYBL2] | 4.74 ± 0.28 | 4.8 ± 0.15 |  | 
36 | STLLGEMDLLTQSLGVDTLPPPDP [APBB1IP] | 3.79 ± 0.42 | 4.03 ± 0.41 |  | 
37 | PYFRAMFTGELAESRQTEVVIRDI [KLHL20] | 2.77 ± 0.25 | 3.09 ± 0.19 |  | 
38 | TYKCTKQLLSERFGRGSRTVDLEL [ARFIP2] | 2.43 ± 0.32 | 2.33 ± 0.18 |  | 
39 | LAAALAQHSVPLQLELRAGAERLD [TRADD] | 2.97 ± 0.36 | 2.94 ± 0.12 |  | 
40 | MASCAEPSEPSAPLPAGVPPLEDF [FKBP8] | 4.97 ± 0.28 | 5.05 ± 0.14 |  | 
41 | MSSPSSPFREQSFLCAAGDAGEES [TIAF1] | 5.34 ± 0.18 | 5.32 ± 0.17 |  | 
42 | LHAVADIHCENCKTTLGWKYEQAF [YPEL3] | 2.38 ± 0.49 | 2.14 ± 0.46 |  | 
43 | RELRCKVFPIKHYQDKIRPYIQLP [TRIB1] | 2.15 ± 0.42 | 2.32 ± 0.1 |  | 
44 | LLPLVTLCDGNPRRPSPVLRHLEL [SCNN1D] | 2.42 ± 0.42 | 2.27 ± 0.46 |  | 
45 | KKHKNSQLDKNSEVYQEVQAMFDT [FAM98B] | 4.31 ± 0.39 | 4.27 ± 0.35 |  | 
46 | GTDSAGPKTVPSHVFSELWDLSEA [ELOA2] | 3.95 ± 0.25 | 4.39 ± 0.38 |  | 

Row | Sequence | protein stability index [1] | protein stability index [2] | protein stability index [3] | protein stability index [4]
47 | GHNSPLYKRQEESGAAASLNVDAA [CHIT1] | 5.19 ± 0.19 | 5.11 ± 0.22 |  | 
48 | VARCEVMAAMFNGNYMEAKSVLIP [RHOBTB3] | 2.16 ± 0.29 | 2.24 ± 0.17 |  | 
49 | GRYAYVRGGGDPWTNGSGLALCQR [MCOLN1] | 2.56 ± 0.37 | 3.02 ± 0.2 |  | 
50 | TSSCPNVSERSFDNVRSLKVESGA [CRYBA1] | 5 ± 0.44 | 4.63 ± 0.2 |  | 
51 | SELIVHIFSFLPAPDRLRASASCS [FBXO33] | 2.76 ± 0.14 | 1.94 ± 0.35 |  | 
52 | DEMCANNDFVQVDPGQVGLINSNV [FAN1] | 4.82 ± 0.2 | 4.78 ± 0.35 |  | 
53 | GYRVSAALEEADKMFLRTREPALD [EID1] | 3.9 ± 0.27 | 3.89 ± 0.3 |  | 
54 | GNDTSPSEGTNLNAPNSLGVSALC [HNF4A] | 4.65 ± 0.18 | 4.76 ± 0.15 |  | 
55 | QRDEQLRALQERLGQQQRDMRRDE [FBF1] | 5.39 ± 0.28 | 5.33 ± 0.31 |  | 
56 | SSGEPVDYNVDIGIPLDGETEEL [MYOZ1] |  |  | 5.5 ± 0.21 | 5.23 ± 0.17
57 | ARLRPGLAVLGADERIFSLTRRLA [HAGHL] | 2.47 ± 0.14 | 2.78 ± 0.27 |  | 
58 | RFRRFRFQEAAGPREALSRLQELC [ZNF263] | 2.6 ± 0.48 | 2.58 ± 0.45 |  | 
59 | FRQRCLERMRNSRDRLLNRYRQAG [RPAIN] | 3.15 ± 0.12 | 3.2 ± 0.15 |  | 
60 | TFRQYCGAACTCHVRNPLSACSIM [RNF208] | 2.21 ± 0.4 | 2.2 ± 0.27 |  | 
61 | GHNDWVMDVAISNNKKWILSASKD [WDR88] | 3.19 ± 0.33 | 3.22 ± 0.59 |  | 
62 | CSYTDLLPQDEGGGGYSSVRYSDC [KCNA4] | 2.67 ± 0.27 | 2.68 ± 0.24 |  | 
63 | HTPSDTGVSFQAISSMADFWDFAQ [PKD2L1] | 2.85 ± 0.36 | 3.01 ± 0.35 |  | 
64 | FNMWGFGRVSKQASQPVKKQQENA [WDR41] | 3.12 ± 0.25 | 3.54 ± 0.18 |  | 
65 | DSYIPLHEDLLTRIGEATKPDGTV [NET1] | 4.5 ± 0.43 | 4.73 ± 0.28 |  | 
66 | QDAPLSDCTETIEGLELTEQTFSP [ADD1] | 5.46 ± 0.21 | 5.3 ± 0.23 |  | 
67 | FNIVYIYTSELYPTVIRNVGLGTC [SLC22A15] | 3.07 ± 0.23 | 3.07 ± 0.62 |  | 
68 | YKGLFEVNPWKREVKLLLSSETPI [APMAP] | 2.71 ± 0.3 | 2.14 ± 0.18 |  | 
69 | SAENIPGCSSSGSCSQGSGILHYA [CRY1] | 2.9 ± 0.33 | 2.93 ± 0.2 |  | 

Row | Sequence | protein stability index [1] | protein stability index [2] | protein stability index [3] | protein stability index [4]
70 | GMSTIRPNPGFSMLDFLSERPWIK [APMAP] | 2.62 ± 0.34 | 2.76 ± 0.24 |  | 
71 | ENANLQEYVEKETQEKKRLSRTNE [MTUS2] | 5.33 ± 0.45 | 5.35 ± 0.18 |  | 
72 | LERYVASLMPLQKSISPWKSPPQL [DENND6A] | 2.16 ± 0.28 | 2.21 ± 0.25 |  | 
73 | FLLSVYAPGSSVEYQCQNLYQLEG [CFHR2] | 2.75 ± 0.48 | 2.52 ± 0.44 |  | 
74 | PRPRRAKRFASLSRFVETLVVADD [ADAMTS4] | 3.65 ± 0.45 | 3.69 ± 0.12 |  | 
75 | QYREAAGPHEAFNKLWELCCQWLK [ZNF449] | 2.93 ± 0.53 | 3.05 ± 1 |  | 
76 | RAMHLMKKREKQREQMEQMKQRIA [FAM50A] | 3.27 ± 0.24 | 3.51 ± 0.14 |  | 
77 | ALAVCLSFFYPVLFVLFMFFGMAF [SOAT1] | 2.84 ± 0.46 | 2.94 ± 0.75 |  | 
78 | SGLLEELNAEAGHLDPGFLASDKT [C18orf25] | 4.96 ± 0.18 | 4.76 ± 0.12 |  | 
79 | NGINGELTSADRETAEEVSARIVQ [MAP2] | 5.23 ± 0.22 | 5.35 ± 0.18 |  | 
80 | LKSSGLCESLTYGLPFILRPTSCW [M1AP] | 2.9 ± 0.31 | 3.06 ± 0.73 |  | 
81 | RAALKLEPSNKTIHAELSKLVKKH [FKBP8] | 3.71 ± 0.19 | 3.85 ± 0.12 |  | 
82 | LTPADKAEHMKRQRHPRLRPQSAQ [AUP1] | 4.36 ± 0.16 | 4.57 ± 0.28 |  | 
83 | ELSRSRKLYGQRERVWALAQEKAA [FCHSD1] | 3.04 ± 0.33 | 3.47 ± 0.22 |  | 
84 | RTSKSRGFAFITFENPADAKNAAK [RBMY1A1] | 3.26 ± 0.28 | 3.46 ± 0.43 |  | 
85 | DQTSLLVVDKETDNMYRLAHFSPF [PDZK1] | 2.61 ± 0.32 | 2.75 ± 0.26 |  | 
86 | TPYKPPAGRAAAPELSYRVCVGSD [MYORG] | 3.94 ± 0.24 | 4.13 ± 0.27 |  | 
87 | WMWLSCSSFFQQFFHCYCPVGFGR [CRY1] | 2.42 ± 0.2 | 2.4 ± 0.25 |  | 
88 | EPPPVKQELPPYNGFGLVEDSAQN [EFHC1] | 5.15 ± 0.059 | 5.15 ± 0.066 |  | 
89 | KMIMDTAGNDPYCFVEFHEHRHAA [TIA1] | 3.28 ± 0.17 | 3.26 ± 0.29 |  | 
